This is an account of results in patent publication US20190184025A1.

pKd, pKi: −log10 of the molar value.

The target in assay [1] is Rat EphA2, biotinylated (in house) (Rat) (UniProt D3ZBN3). In words: SPR, biotinylated rat EphA2 on streptavidin. A general note: Surface plasmon resonance follows binding to a sensor surface in real time, without labels.
Assay [2] addresses Human EphA2, biotinylated (in house) (Human) (UniProt P29317). In words: SPR, biotinylated human EphA2 on streptavidin.
Assay [3] concerns the target Mouse EphA2 Fc fusion (Mouse) (UniProt Q03145). In words: SPR, mouse EphA2-Fc captured by anti-human IgG.
Assay [4] has as its target Mouse EphA2 (Ecto), C-terminal polyHis (Mouse) (UniProt Q03145). In words: FP competition against Reference Compound C (Study 2).

Mouse EphA2 Fc fusion (Mouse), sequence (Q03145 26-535 limits assumed): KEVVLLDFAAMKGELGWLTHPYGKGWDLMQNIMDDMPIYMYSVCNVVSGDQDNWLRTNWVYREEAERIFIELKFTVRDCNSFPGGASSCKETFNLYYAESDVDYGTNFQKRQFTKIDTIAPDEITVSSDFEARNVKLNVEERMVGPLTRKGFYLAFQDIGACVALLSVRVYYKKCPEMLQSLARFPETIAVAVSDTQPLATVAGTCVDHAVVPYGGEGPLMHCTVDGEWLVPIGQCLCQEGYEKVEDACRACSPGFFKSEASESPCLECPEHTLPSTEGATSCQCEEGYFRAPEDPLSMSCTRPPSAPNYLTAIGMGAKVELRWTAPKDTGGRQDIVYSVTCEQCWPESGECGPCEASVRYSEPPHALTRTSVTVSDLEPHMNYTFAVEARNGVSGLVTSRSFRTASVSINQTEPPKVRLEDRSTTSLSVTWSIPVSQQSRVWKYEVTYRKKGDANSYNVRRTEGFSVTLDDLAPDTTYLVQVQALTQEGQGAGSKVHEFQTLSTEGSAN
Mouse EphA2 (Ecto), C-terminal polyHis (Mouse), sequence (Q03145 26-538): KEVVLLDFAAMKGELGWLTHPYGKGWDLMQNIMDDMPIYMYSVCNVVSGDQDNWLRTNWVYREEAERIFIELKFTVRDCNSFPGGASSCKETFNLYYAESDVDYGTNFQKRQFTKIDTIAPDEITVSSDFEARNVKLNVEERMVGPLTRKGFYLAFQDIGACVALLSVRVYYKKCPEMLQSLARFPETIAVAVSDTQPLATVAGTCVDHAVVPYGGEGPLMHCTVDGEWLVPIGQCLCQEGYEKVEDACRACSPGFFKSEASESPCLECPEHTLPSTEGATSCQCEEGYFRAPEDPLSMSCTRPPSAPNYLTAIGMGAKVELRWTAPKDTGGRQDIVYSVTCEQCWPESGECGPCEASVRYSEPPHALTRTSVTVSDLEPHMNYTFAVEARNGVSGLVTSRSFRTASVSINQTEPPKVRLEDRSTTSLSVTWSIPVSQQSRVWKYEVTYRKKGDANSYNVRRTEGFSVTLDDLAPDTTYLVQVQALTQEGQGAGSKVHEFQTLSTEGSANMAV

The pKd is the negative decadic logarithm of the Kd, by convention in mol/L. Low readings indicate a high Kd, high ones a low Kd. The term pKi denotes the Ki on a negative log10 scale, so that one unit is a factor of ten. Turning to BCY6136 (peptide), the pKd in assay [1] is 8.53; in assay [2] it was 8.93; in assay [3], 8.60. For the same substance, the t1/2 stood at 12.6 min in assay [1], 10 min in assay [2] and 10.4 min in assay [3]. The pKi in assay [4] is 8.26.
